How the values were obtained:
[1] = biological target: MOD-5014 (FVIIa-CTP3, activated Factor VII-CTP-CTP-CTP) (human) (UniProt P08709); assay: cell-based or functional assay
[2] = biological target: NovoSeven (commercial recombinant human FVIIa) (human) (UniProt P08709); assay: cell-based or functional assay

For “Anti thrombin III (ATIII) (from UniProt P01008 33-464)”, the % Inhibition of clotting activity, AT 1.050 ng/mL [1] was 25%, the % Inhibition of clotting activity, AT 10.5 ng/mL [1] was 28% and the % Inhibition of clotting activity, AT 105 ng/mL [1] was 25%. For the same substance, the % Inhibition of clotting activity, AT 10,500 ng/mL [1] was 25%, the % Inhibition of clotting activity, AT 105000 ng/mL [1] was 62% and the % Inhibition of clotting activity, AT 525000 ng/mL [1] was 100%. For the same substance, the Activity (mU/mL), clotting assay, AT 0 ng/mL (no inhibitor) [1] was 70.8 mU/mL, the Activity (mU/mL), clotting assay, AT 1.050 ng/mL [1] was 52.9 mU/mL and the Activity (mU/mL), clotting assay, AT 10.5 ng/mL [1] was 50.7 mU/mL. For the same substance, the Activity (mU/mL), clotting assay, AT 105 ng/mL [1] was 53.3 mU/mL, the Activity (mU/mL), clotting assay, AT 1,050 ng/mL [1] was 53.4 mU/mL and the Activity (mU/mL), clotting assay, AT 10,500 ng/mL [1] was 53 mU/mL. It also gave an Activity (mU/mL), clotting assay, AT 105000 ng/mL [1] of 27 mU/mL, an Activity (mU/mL), clotting assay, AT 525000 ng/mL [1] of 0 mU/mL and an O.D, FX activation by MOD-5014 (0.7 ng/ml), AT 0.16 µg/ml [1] of 1.18 O.D. For the same substance, the O.D, FX activation by MOD-5014 (0.7 ng/ml), AT 0.8 µg/ml [1] was 1.07 O.D, the O.D, FX activation by MOD-5014 (0.7 ng/ml), AT 4 µg/ml [1] was 1.14 O.D and the O.D, FX activation by MOD-5014 (0.7 ng/ml), AT 20 µg/ml [1] was 1.11 O.D. For the same substance, the O.D, FX activation by MOD-5014 (0.7 ng/ml), AT 100 µg/ml [1] was 0.974 O.D, the O.D, FX activation by MOD-5014 (0.7 ng/ml), AT 500 µg/ml [1] was 0.975 O.D and the O.D, FX activation by MOD-5014 (0.7 ng/ml), AT 1680 µg/ml [1] was 0.656 O.D. It also gave an O.D, FX activation by MOD-5014 (0.7 ng/ml), control (no AT) [1] of 1.09 O.D, an O.D., FX activation by MOD-5014 (0.7 ng/ml) with 1 U/µl heparin, AT 0.032 µg/ml [1] of 1.24 O.D and an O.D., FX activation by MOD-5014 (0.7 ng/ml) with 1 U/µl heparin, AT 0.16 µg/ml [1] of 1.24 O.D. For the same substance, the O.D., FX activation by MOD-5014 (0.7 ng/ml) with 1 U/µl heparin, AT 0.8 µg/ml [1] was 1.25 O.D, the O.D., FX activation by MOD-5014 (0.7 ng/ml) with 1 U/µl heparin, AT 4 µg/ml [1] was 1.26 O.D and the O.D., FX activation by MOD-5014 (0.7 ng/ml) with 1 U/µl heparin, AT 20 µg/ml [1] was 1.08 O.D. It also gave an O.D., FX activation by MOD-5014 (0.7 ng/ml) with 1 U/µl heparin, AT 100 µg/ml [1] of 0.404 O.D, an O.D., FX activation by MOD-5014 (0.7 ng/ml) with 1 U/µl heparin, AT 500 µg/ml [1] of 0.153 O.D and an O.D., FX activation by MOD-5014 (0.7 ng/ml) with 1 U/µl heparin, AT 1680 µg/ml [1] of 0.197 O.D. It also gave an O.D., FX activation by MOD-5014 (0.7 ng/ml), AT III constant 20 µg/ml, heparin 0.002 U/µl [1] of 1.29 O.D, an O.D., FX activation by MOD-5014 (0.7 ng/ml), AT III constant 20 µg/ml, heparin 0.01 U/µl [1] of 1.14 O.D and an O.D., FX activation by MOD-5014 (0.7 ng/ml), AT III constant 20 µg/ml, heparin 0.25 U/µl [1] of 0.917 O.D. For the same substance, the O.D., FX activation by MOD-5014 (0.7 ng/ml), AT III constant 20 µg/ml, heparin 1.25 U/µl [1] was 0.896 O.D, the O.D., FX activation by MOD-5014 (0.7 ng/ml), AT III constant 20 µg/ml, heparin 6.25 U/µl [1] was 1.02 O.D and the O.D., FX activation by MOD-5014 (0.7 ng/ml), Control [1] was 1.41 O.D. The % Inhibition of clotting activity, AT 1.050 ng/mL [2] was 21%, the % Inhibition of clotting activity, AT 105 ng/mL [2] was 20% and the % Inhibition of clotting activity, AT 10,500 ng/mL [2] was 30%. The % Inhibition of clotting activity, AT 525000 ng/mL [2] was 100%, the Activity (mU/mL), clotting assay, AT 0 ng/mL (no inhibitor) [2] was 88.1 mU/mL and the Activity (mU/mL), clotting assay, AT 1.050 ng/mL [2] was 69.5 mU/mL. The Activity (mU/mL), clotting assay, AT 10.5 ng/mL [2] was 68.4 mU/mL, the Activity (mU/mL), clotting assay, AT 105 ng/mL [2] was 70.2 mU/mL and the Activity (mU/mL), clotting assay, AT 1,050 ng/mL [2] was 66.8 mU/mL. For the same substance, the Activity (mU/mL), clotting assay, AT 10,500 ng/mL [2] was 61.5 mU/mL, the Activity (mU/mL), clotting assay, AT 105000 ng/mL [2] was 30.6 mU/mL and the Activity (mU/mL), clotting assay, AT 525000 ng/mL [2] was 0 mU/mL. The O.D, FX activation by NovoSeven (0.7 ng/ml), AT 0.16 µg/ml [2] was 1.23 O.D, the O.D, FX activation by NovoSeven (0.7 ng/ml), AT 4 µg/ml [2] was 1.17 O.D and the O.D, FX activation by NovoSeven (0.7 ng/ml), AT 20 µg/ml [2] was 1.15 O.D. It also gave an O.D, FX activation by NovoSeven (0.7 ng/ml), AT 100 µg/ml [2] of 1.14 O.D, an O.D, FX activation by NovoSeven (0.7 ng/ml), AT 500 µg/ml [2] of 0.933 O.D and an O.D, FX activation by NovoSeven (0.7 ng/ml), AT 1680 µg/ml [2] of 0.784 O.D. It also gave an O.D, FX activation by NovoSeven (0.7 ng/ml), control (no AT) [2] of 1.28 O.D, an O.D., FX activation by NovoSeven (0.7 ng/ml) with 1 U/µl heparin, AT 0.032 µg/ml [2] of 1.16 O.D and an O.D., FX activation by NovoSeven (0.7 ng/ml) with 1 U/µl heparin, AT 0.16 µg/ml [2] of 1.19 O.D. The O.D., FX activation by NovoSeven (0.7 ng/ml) with 1 U/µl heparin, AT 0.8 µg/ml [2] was 1.22 O.D, the O.D., FX activation by NovoSeven (0.7 ng/ml) with 1 U/µl heparin, AT 4 µg/ml [2] was 1.17 O.D and the O.D., FX activation by NovoSeven (0.7 ng/ml) with 1 U/µl heparin, AT 20 µg/ml [2] was 1.04 O.D. It also gave an O.D., FX activation by NovoSeven (0.7 ng/ml) with 1 U/µl heparin, AT 100 µg/ml [2] of 0.503 O.D, an O.D., FX activation by NovoSeven (0.7 ng/ml) with 1 U/µl heparin, AT 500 µg/ml [2] of 0.201 O.D and an O.D., FX activation by NovoSeven (0.7 ng/ml) with 1 U/µl heparin, AT 1680 µg/ml [2] of 0.141 O.D. The O.D., FX activation by NovoSeven (0.7 ng/ml), AT III constant 20 µg/ml, heparin 0.002 U/µl [2] was 1.24 O.D, the O.D., FX activation by NovoSeven (0.7 ng/ml), AT III constant 20 µg/ml, heparin 0.01 U/µl [2] was 1.2 O.D and the O.D., FX activation by NovoSeven (0.7 ng/ml), AT III constant 20 µg/ml, heparin 0.25 U/µl [2] was 1.04 O.D. For the same substance, the O.D., FX activation by NovoSeven (0.7 ng/ml), AT III constant 20 µg/ml, heparin 1.25 U/µl [2] was 0.98 O.D, the O.D., FX activation by NovoSeven (0.7 ng/ml), AT III constant 20 µg/ml, heparin 6.25 U/µl [2] was 1 O.D and the O.D., FX activation by NovoSeven (0.7 ng/ml), Control [2] was 1.43 O.D.

Source: patent publication US20180360932A1 (OPKO BIOLOGICS, published 2018)
